# Experimental data taken from the DeepSol protein solubility set.
# Test: soluble on expression in E. coli; label from the status in PepcDB or PDB records
row,Sequence,soluble on expression in E. coli
1,MSSKLVLVLNCGSSSLKFAIIDAVNGEEYLSGLAECFHLPEARIKWKMDGNKQEAALGAGAAHSEALNFIVNTILAQKPELSAQLTAIGHRIVHGGEKYTSSVVIDESVIQGIKDAASFAPLHNPAHLIGIEEALKSFPQLKDKNVAVFDTAFHQTMPEESYLYALPYNLYKEHGIRRYGAHGTSHFYVTQEAAKMLNKPVEELNIITCHLGNGGSVSAIRNGKCVDTSMGLTPLEGLVMGTRSGDIDPAIIFHLHDTLGMSVDAINKLLTKESGLLGLTEVTSDCRYVEDNYATKEDAKRAMDVYCHRLAKYIGAYTALMDGRLDAVVFTGGIGENAAMVRELSLGKLGVLGFEVDHERNLAARFGKSGFINKEGTRPAVVIPTNEELVIAQDASRLTA,soluble
2,MATVLIVGRPNVGKSTLFNKLVKKKKAIVEDEEGVTRDPVQDTVEWYGKTFKLVDTCGVFDNPQDIISQKMKEVTLNMIREADLVLFVVDGKRGITKEDESLADFLRKSTVDTILVANKAENLREFEREVKPELYSLGFGEPIPVSAEHNINLDTMLETIIKKLEEKGLDLESKPEITDAIKVAIVGRPNVGKSTLFNAILNKERALVSPIPGTTRDPVDDEVFIDGRKYVFVDTAGLRRKSRVEPRTVEKYSNYRVVDSIEKADVVVIVLDATQGITRQDQRMAGLMERRGRASVVVFNKWDLVVHREKRYDEFTKLFREKLYFIDYSPLIFTSADKGWNIDRMIDAMNLAYASYTTKVPSSAINSALQKVLAFTNLPRGLKIFFGVQVDIKPPTFLFFVNSIEKVKNPQKIFLRKLIRDYVFPFEGSPIFLKFKRSR,soluble
3,MGSDKIHHHHHHMNKQVSTRGTKEKALRLNLDDKKYGTIVEIGAGQEVARNFFVAGAAAGTIAKTMSAYDMTFSDAIYGVQQDGRYVSKARVQAMMEQELDLVIERVGDVRSKSSRYFTYAATVAAKSFNRNNECHAWCGVRVQMYPGAEPSNIVVHVRMFDDNAEAQQQALGVLGVNLIYAAYYYFEDPKKIIDSLTDDLKANRIEIDCIEFQGPYFEDIDSRAKNIHLIRSWKTRAIMFKPDGSVAVPAEMLYKKNVLTIRGSFKPVTKLNVDMIEQGEKAFAELEGVSKDNTIVIAEISLNDSHGKDANMSSTDIIERVKLLNLLGYNVMVSDYTRYFSLRAYFRQYTKLQIGIVVGMINIKQIFDETFYRGLEGGILEGFGKLFPDHTRVFVYPELSETGELKDLTTVNVPNNLRYLYRHLLDNGFITSIESSDINLFSYFSREILKQIAKGSDEWQQALPQPVIDEIISKKLFGYRG,not soluble
4,MGSDKIHHHHHHMKKKYVTIRDIAEKAGVSINTVSRALNNKPDISEETRRKILKIAQELGYVKNATASSLRSKQTNIVGVIIADSANPFYAEVLKGIEAASRKYGYQIMLMNTERIYENEEKAIEVLLQRRVDGLLITPVQDRSDDIKTLIERKVPFVIVGRHFEELEVDEIHSDEVKGGYLATRHLIERGRKNIIMISGYLFKSAAYMRLEGYRKALKEYGIPFSEKMIIETDIDIESGYRAMREAIEKGLEFEAVFCYNDLLAFGVIKALKECGYRIPEDVAVVGYDDIVYSSFICPSLTTVRIKKFEMGFEAFRMLLQRLKGRRKKRKRVILDVELVVRESG,not soluble
5,MESLQSIKEIRKYIENNELVLMYFRSDNSGICYALDPLIEAISKKYSKISSVKVNTGNLPSVPADFKIFTVPEVIIFMNGSIVIEHFKYINFREIEEVLLRYYKCI,not soluble
6,SNANEAQQYYLDADEAEAWIGEQELYVISDEIPKDEEGAIVMLKRHLRQQRAVEDYGRNIKQLASRAQGLLSAGHPEGEQIIRLQGQVDKHYAGLKDVACERKRKLENMYHLFQLKRETDDLEQWISEKELVASSPEMGQDFDHVTLLRDKFRDFARETGAIGQERVDNVNAFIERLIDAGHSEAATIAEWKDGLNEMWADLLELIDTRMQLLAASYDLHRYFYTGAEILGLIDEKHRELPEDVGLDASTAESFHRVHTAFERDVHLLGVQVQQFQDVATRLQTAYAGEKAEAIQNKEQEVSAAWQALLDACAGRRTQLVDTADKF,soluble
7,MKQPPLEDQYQMFGSIALSAFGAELLRHSLLPELLGKDAASLLYWAGKQLARRYPLGTLDDVAVFFERAGWGELSTGEERNDELYIELSGPIIAARFSLYGSCSFQLEAGFLAQQIEQQKRFVTEAVELPPKRDGKARILVKWDRKQAIE,not soluble
8,MEAVLYVSHGSRIAAARHEAARFVEQCRRAIDIPIQELCFVELAEPDIVTGVDRCVAQGATRVIVVPLLLLSAGHAKHDIPAALDIARRRHPSVDILCGAPFGVHEAMIDIMIDRISEQSAPLDGESMILLVGRGSSDPDTKRDMSAIAALLKEKTNVPHVDVCFLAAIRPTLDEGLERAHASAYRRVFVVPYLLFTGVLMKTIERRLQGFSVSDKQWHLCSYLGDHPRLVLLIQQQVLSLSSVKKGA,soluble
9,MSEFDELKYLTGFGNEHATSDPRVPDALPVGQNSPQKCSHGLYAEQLSGTAFTAPRSQNQRSWLYRIRPSVIHRPFEAMKENDQHWTNNFSSIPPNPNQYRWNPFPLPTKEGVTFVDNLYTVCGGGDVISRTGLAIHQFSCNASMEHTAMYNSDGDFLIVPQQGALEITTEFGRLLVNPQEIAVIPQGIRFSVAVRGPSRGYILEVYGTHFQLPDLGPIGANGLANPRDFEAPVAWFEDLDVEFTIINKYQGSWFQAKQGHSPFDVVGWHGNYVPYKYDLKKFMVINTVSFDHCDPSIFTVLTAPSVKHGTAIADFVIFPPRWGCADNTFRPPYYHRNCMSEYMGLITGCYEAKEGGFKPGGGSLHSMMTPHGPDFNCFEMASNADLKPQRVAEGTMSFMFESSLNMAITNWAVYQNVDKDYYKDWQPLKKHFTMPK,not soluble
10,MDTIQKRPRTRLSPEKRKEQLLDIAIEVFSQRGIGRGGHADIAEIAQVSVATVFNYFPTREDLVDDVLNKVENEFHQFINNSISLDLDVRSNLNTLLLNIIDSVQTGNKWIKVWFEWSTSTRDEVWPLFLSTHSNTNQVIKTMFEEGIERNEVCNDHTPENLTKMLHGICYSVFIQANRNSSSEEMEETANCFLNMLCIYK,not soluble
11,MAEAYLEYLGKHDVLTKLHNRAFYSDELNRLERSALRPVSAIVIDLNGLKEANDKLGHDAGDALLRRVGEVLNGVVTAPNHAARIGGDEFAILLPGADKQVAAAMVDTVYELLKINNQFYSSAPLSLSLGVATTEAGETMESLVRRADMNMYEQKNAYYAALRNRSADNNDTTKGLEHHHHHH,soluble
12,MGSDKIHHHHHHSFSLPGYLFGRCPDYSITYDKNDAQEQKDVYICDGNKSVVRIDSYKWNSSSSDWVYDGKTVMENDNQGRTLVAISYSAADVAGEKTEYTYTGNGYEKFSVTSSSFEGGAWKAEAKVDIEATFNKDKYPVSILMTGTAEGETFKMKMEWSYDKNVTKTSSSIDFGGSWMLMSESKTEIVDAGNPMISKNYQKMYFPAETSWEYSGKTHDYFNGTTSIAPVVEENELKLHIYGDVLEVQGTESGISIYAITGGKMAESKSNRIDISRLPAGIYLLNTARGSIKFIHK,not soluble
13,GPGSMQTDFGDATTFSLRPDHKRKFRPNDIRPVVRSLLESRLENEVYKADEMQSISKEIADGVRDRIRSMELERYKIMVHCMIGEQRGQGLRAGCKMFWDSDTDDYFEEVYVTQHLFAVVTVFGLYQY,not soluble
14,MDGSMGEGGGQILRTAVALAAVLGRPLRIVNIRAKRRPPGLRPQHLTAVRAVAAISGGRLRGAEVGSTSLEFTPGRVRGGRYRFDVGTAGSVALIIQALAPLLAYSDSPVEVELTGGTDVPMAPTIDYMREVFASILAMLGYEIEIRVLRRGHYPRGGGRVVVRVPDPPGGFRARSFVERGPLKGVYVRSHAVKLPGSIAERQARSAASLVRERLGVDPIVEIEAYKPHRDPHLGPGTGVLVWAVFGETVMGGDSIGKKGKPAEVVGREAAESLLEDMATGAALDRHMSDMAPVYLALAGGVSTVFGARLTGHASTILELLRIMVDGFEYRILEGGLERPFKAELRGAGVSPR,soluble
15,NLSELTPYILCSICKGYLIDATTITECLHTFCKSCIVRHFYYSNRCPKCNIVVHQTQPL,soluble
16,GMIEKVYEFKRDAKTKVVEKLVNTEHVQINHIVLPRGEQMPKHYSNSYVHLIIIKGEMTLTLEDQEPHNYKEGNIVYVPFNVKMLIQNINSDILEFFVVKAPHPKKLNAPEDPIKCE,soluble
17,MSEDILPITISLAGEKDTIRLGEDLALALKPGDCLTLIGDLGAGKSTLARAFIRAMADEPDLEVPSPTFTIIQTYTTRIPVAHLDLYRLSDVSELDELGIDEMLEDGICLIEWPDIAAEVLPPAQTITLQLTHSGEGRVAVIEAPAQQKARLDRVFAIREFLAKNGRGDATRRFLSGDASTRAYETISTDGPDLILMDWRRPMRGAIVADGKTYAEIVHLAQDARSFVAIGDYLRNSGFRAPEILAADIDQGILLLEDLGREGVLAADGTPIEERYLQSVACLATLHQTPRPALLPMRDGSTYDIPSFDRQAMKIEVSLLVEWYLPHKRGKALTDGEKQDYYAIWDGLIDALAGCETGLLLRDFHSPNILWQAQNSGIGQVGLIDFQDAMIGPTAYDLASIVQDARVTIPPELQTRLMSHYLNSRKATPAFDEAAFLKAFAIMSAQRNCKLAGIWVRLLERDKKPGYMKHMPRTFRYLADALSHPELAPLREWCVRMGMDFNDLEHHHHHH,soluble
18,MPKFDVSKSDLERLIGRSFSIEEWEDLVLYAKCELDDVWEENGKVYFKLDSKDTNRPDLWSAEGVARQIKWALGIEKGLPKYEVKKSNVTVYVDEKLKDIRPYGVYAIVEGLRLDEDSLSQMIQLQEKIALTFGRRRREVAIGIFDFDKIKPPIYYKAAEKTEKFAPLGYKEEMTLEEILEKHEKGREYGHLIKDKQFYPLLIDSEGNVLSMPPIINSEFTGRVTTDTKNVFIDVTGWKLEKVMLALNVMVTALAERGGKIRSVRVVYKDFEIETPDLTPKEFEVELDYIRKLSGLELNDGEIKELLEKMMYEVEISRGRAKLKYPAFRDDIMHARDILEDVLIAYGYNNIEPEEPKLAVQGRGDPFKDFEDAIRDLMVGFGLQEVMTFNLTNKEVQFKKMNIPEEEIVEIANPISQRWSALRKWILPSLMEFLSNNTHEEYPQRIFEVGLATLIDESRETKTVSEPKLAVALAGTGYTFTNAKEILDALMRHLGFEYEIEEVEHGSFIPGRAGKIIVNGRDIGIIGEVHPQVLENWNIEVPVVAFEIFLRPLYRH,soluble
19,MTPTLETKYVFTITARIGDVTSAGEIGTGVRRIIPILGGEVKGEGISGQVLPFGADFQIIRPNELIELEAKYAFETDDGAVVYVENVGIRFGPVELLRKLKRGEPVDPKVIYFRTRPRFETGHPNYQWLMQYLFVGSAARHADRVVIDVHQVL,soluble
20,TMEIPINRTYSCFLEGPEAPKTPACQAAKQAGGTQAMYDWNGINQNPSGDNHQAVVPDGTLCGGGKAEFKGFNLAREDWRTTNIVPDANGNYEFIYKATAPHATKYFKFYVTKNGWNPTQALKWSDLELFGTVNGNPQQDAGKRYHMTLKLPQGKTGKHIIFNVWKRSDSEEAFYSCSDVNFGG,not soluble
21,AQSVPPGDINTQPSQKIVFNAPYDDKHTYHIKITNAGGRRIGWAIKTTNMRRLSVDPPCGVLDPKEKVLMAVSCDTFNAATERLNNDRITIEWTNTPDGAAKQFRREWFQGDGMVRRKNLPIEYNL,soluble
22,SLIRMIRKFKVKGLRSPSLLIDMILNDTEEGILVVETDGEEQIKDIEKLLKKYNLKYEVDGNVVKIYVGEIKADKTINVVGATCPGPIMMVSDMLSKMKNGEILEIICGKNSLTDLTEGLKGMGNEIIKVEDKGDGTYRILVKKGEKKEEKAAVTKIDELFIINTTGTGNAEKAYATFMMADVALKMNLKPTIFLMMDGASLALKGECDRVKHPAFPKLGDLVRDILSKGVKIYVCELSAEFRGINEKNLEEGFEIAGAPTFLNYLSKPNVRPVWL,soluble
